Experimental findings from paper PMC9482650, “Quantitative fragmentomics allow affinity mapping of interactomes” (Nature Communications, 2022) are described below.

In general, pKd refers to −log10 of the Kd, conventionally taken in molar units.

Test in all cases: holdup assay
Holding throughout (design): key: below the threshold = too weak to quantify, mostly under pKd 3.1 to 4
Holding throughout (conditions): plain residues with an end cap or a label only (N-terminal biotin on a linker: ttds)

Assay [1] addresses SDCBP_1, O00560.
Assay [2] has as its target PDZRN4_2, Q6ZMN7.
Assay [3] has as its target NHERF2_1, Q15599.
For assay [4], the target named is DVL2, O14641.
Chain of DVL2, O14641 (O14641 260-359): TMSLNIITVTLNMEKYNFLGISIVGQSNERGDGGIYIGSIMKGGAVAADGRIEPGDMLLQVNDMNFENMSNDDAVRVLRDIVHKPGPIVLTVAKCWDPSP
The target in assay [5] is T1, APBA3_2, O96018.
T1 sequence (O96018 480-570, limits assumed, looked up): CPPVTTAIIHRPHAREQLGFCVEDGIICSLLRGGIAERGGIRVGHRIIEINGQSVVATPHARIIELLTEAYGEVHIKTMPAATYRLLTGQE

The target of assay [6] is MAGI3_6, Q5TCQ9.
Chain of MAGI3_6, Q5TCQ9 (Q5TCQ9 1014-1103): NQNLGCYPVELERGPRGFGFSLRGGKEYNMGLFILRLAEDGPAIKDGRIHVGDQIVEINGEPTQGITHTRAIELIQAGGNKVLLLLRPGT
Assay [7] has as its target T2, MPDZ_11, O75970.
T2 sequence (O75970 1720-1817, limits assumed, looked up): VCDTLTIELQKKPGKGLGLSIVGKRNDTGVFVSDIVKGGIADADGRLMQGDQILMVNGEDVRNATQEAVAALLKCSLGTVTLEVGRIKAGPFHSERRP

Assay [8] concerns the target T3, PDZRN3_2, Q9UPQ7.
T3 sequence (Q9UPQ7 414-513, limits assumed, looked up): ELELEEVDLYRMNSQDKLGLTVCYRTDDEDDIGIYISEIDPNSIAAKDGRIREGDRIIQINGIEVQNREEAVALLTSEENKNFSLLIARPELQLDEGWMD

Assay [9] has as its target T4, PDZD2_4, O15018.
T4 sequence (O15018 723-823, limits assumed, looked up): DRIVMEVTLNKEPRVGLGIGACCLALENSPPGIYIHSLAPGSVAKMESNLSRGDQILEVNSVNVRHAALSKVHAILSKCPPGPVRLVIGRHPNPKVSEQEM

For assay [10], the target named is T5, GIPC1, O14908.
T5 sequence (O14908 128-223, limits assumed, looked up): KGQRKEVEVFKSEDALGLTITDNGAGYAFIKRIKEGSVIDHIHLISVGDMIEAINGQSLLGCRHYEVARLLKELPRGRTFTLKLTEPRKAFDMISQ

Assay [11] addresses TJP1_1, Q07157.
The target in assay [12] is CARD14, Q9BXL6.
Chain of CARD14, Q9BXL6 (Q9BXL6 558-663): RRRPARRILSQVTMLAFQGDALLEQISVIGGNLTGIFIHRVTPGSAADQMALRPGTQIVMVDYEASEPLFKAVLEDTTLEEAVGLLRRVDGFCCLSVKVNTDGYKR
The target in assay [13] is T6, MPDZ_3, O75970.
T6 sequence (O75970 372-473, limits assumed, looked up): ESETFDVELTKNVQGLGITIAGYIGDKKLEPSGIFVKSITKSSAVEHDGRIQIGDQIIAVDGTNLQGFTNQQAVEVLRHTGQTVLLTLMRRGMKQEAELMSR

For assay [14], the target named is T7, PDZD2_1, O15018.
T7 sequence (O15018 80-192, limits assumed, looked up): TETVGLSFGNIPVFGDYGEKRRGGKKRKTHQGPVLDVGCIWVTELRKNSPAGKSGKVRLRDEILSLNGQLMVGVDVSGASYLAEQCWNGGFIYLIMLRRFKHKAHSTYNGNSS

Assay [15] has as its target T8, SHANK3, Q9BYB0.
T8 sequence (Q9BYB0 641-750, limits assumed, looked up): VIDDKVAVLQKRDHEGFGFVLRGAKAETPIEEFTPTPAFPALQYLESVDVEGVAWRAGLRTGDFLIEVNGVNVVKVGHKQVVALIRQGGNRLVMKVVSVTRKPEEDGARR

Assay [16] has as its target T9, PARD6G, Q9BYG4.
T9 sequence (Q9BYG4 153-261, limits assumed, looked up): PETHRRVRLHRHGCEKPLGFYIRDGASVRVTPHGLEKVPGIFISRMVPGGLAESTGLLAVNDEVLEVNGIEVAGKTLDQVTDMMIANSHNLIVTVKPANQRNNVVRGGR

Assay [17] deals with MAGI1_4, Q96QZ7.
Chain of MAGI1_4, Q96QZ7 (Q96QZ7 other isoform, or with tags, fused parts or gaps): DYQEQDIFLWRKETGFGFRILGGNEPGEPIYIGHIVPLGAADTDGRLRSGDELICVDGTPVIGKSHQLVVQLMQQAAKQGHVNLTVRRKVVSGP
Assay [18] addresses T10, MPP1, Q00013.
T10 sequence (Q00013 66-162, limits assumed, looked up): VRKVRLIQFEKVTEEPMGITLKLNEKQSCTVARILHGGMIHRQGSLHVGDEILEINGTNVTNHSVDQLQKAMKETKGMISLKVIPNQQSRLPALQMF

In assay [19] the target is DLG5_2, Q8TDM6.
Chain of DLG5_2, Q8TDM6 (Q8TDM6 714-800): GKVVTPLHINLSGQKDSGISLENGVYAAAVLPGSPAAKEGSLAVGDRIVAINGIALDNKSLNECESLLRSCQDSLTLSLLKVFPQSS
Assay [20] addresses T11, NHERF1_1, O14745.
T11 sequence (O14745 9-104, limits assumed, looked up): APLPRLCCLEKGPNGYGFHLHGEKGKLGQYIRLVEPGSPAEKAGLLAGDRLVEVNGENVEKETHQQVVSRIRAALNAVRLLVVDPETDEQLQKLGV

For assay [21], the target named is GIPC3, Q8TF64.
Chain of GIPC3, Q8TF64 (Q8TF64 107-202): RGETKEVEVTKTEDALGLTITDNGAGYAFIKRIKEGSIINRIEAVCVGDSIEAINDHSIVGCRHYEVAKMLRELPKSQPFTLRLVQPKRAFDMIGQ
In assay [22] the target is CNKSR3, Q6P9H4.
Chain of CNKSR3, Q6P9H4 (Q6P9H4 203-303): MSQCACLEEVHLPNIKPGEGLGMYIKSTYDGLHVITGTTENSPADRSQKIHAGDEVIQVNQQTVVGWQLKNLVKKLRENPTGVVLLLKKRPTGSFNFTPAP
Assay [23] concerns the target T12, PTPN13_4, Q12923.
T12 sequence (Q12923 1783-1878, limits assumed, looked up): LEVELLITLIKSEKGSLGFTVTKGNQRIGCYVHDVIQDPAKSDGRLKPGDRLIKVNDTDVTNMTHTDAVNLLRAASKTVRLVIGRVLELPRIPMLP

For assay [24], the target named is T13, PDZD8, Q8NEN9.
T13 sequence (Q8NEN9 361-459, limits assumed, looked up): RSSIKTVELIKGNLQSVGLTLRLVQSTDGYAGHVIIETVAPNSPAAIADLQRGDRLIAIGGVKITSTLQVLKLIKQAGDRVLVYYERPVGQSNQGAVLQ

Chain of TJP1_1, Q07157 (Q07157 18-120): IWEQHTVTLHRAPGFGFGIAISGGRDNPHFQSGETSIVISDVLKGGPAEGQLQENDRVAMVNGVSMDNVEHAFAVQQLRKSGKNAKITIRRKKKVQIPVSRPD
Chain of SDCBP_1, O00560 (O00560 111-198): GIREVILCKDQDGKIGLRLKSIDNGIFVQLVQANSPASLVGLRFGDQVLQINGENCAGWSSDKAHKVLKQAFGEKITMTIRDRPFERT
Chain of PDZRN4_2, Q6ZMN7 (Q6ZMN7 389-498): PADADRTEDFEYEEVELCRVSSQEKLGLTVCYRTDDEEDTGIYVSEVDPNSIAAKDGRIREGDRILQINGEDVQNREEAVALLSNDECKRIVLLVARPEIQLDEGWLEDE
Chain of NHERF2_1, Q15599 (Q15599 9-91): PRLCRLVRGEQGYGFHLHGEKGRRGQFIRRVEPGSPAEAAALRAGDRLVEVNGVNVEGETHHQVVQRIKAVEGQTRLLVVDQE

In the case of RHTTSTETAV [HPV30-E6, P36809], the negative-log Kd (pKd) result was “below the threshold” in [1]; 4.48 in assay [2]; “below the threshold” in assay [3]; “below the threshold” in assay [4]; “below the threshold” in assay [5]; “below the threshold” in [6]. Besides, the negative logarithm of the Kd (pKd) result was “below the threshold” in [7]; “below the threshold” in [8]; 4.78 in assay [9]; 4.7 in [10]; “below the threshold” in assay [11]; “below the threshold” in [12]. Further, the pKd entry is “below the threshold” in assay [13]; “below the threshold” in assay [14]; “below the threshold” in assay [15]; “below the threshold” in [16]; “below the threshold” in assay [17]; 5.17 in assay [18]. For the same molecule, the pKd result in assay [19], in [20], in assay [21], in assay [22], in assay [23] and in assay [24] was “below the threshold” throughout.

In the case of QRQARSETLV [HPV59-E6, Q81964], the pKd entry in assay [1], in assay [2], in assay [3], in assay [4], in [5] and in [6] was “below the threshold” each time. Also, the pKd result in assay [7], in [8], in assay [9], in assay [10], in assay [11] and in assay [12] was “below the threshold” throughout. Besides, the pKd entry in assay [13] is “below the threshold”; in [14] it was “below the threshold”; in assay [15] it was 4.22; in [16] it was “below the threshold”; in [17], 4.65; in [18], 6.03. In addition, the pKd result is “below the threshold” in assay [19]; “below the threshold” in [20]; “below the threshold” in [21]; “below the threshold” in assay [22]; 4.42 in [23]; “below the threshold” in assay [24].

For SSLQSLETSV [ATP2B4, P23634], the pKd entry in assay [1] is “below the threshold”; in assay [2], 4.24; in assay [3], “below the threshold”; in [5], 4.21; in [6], “below the threshold”; in assay [7], “below the threshold”. The negative logarithm of the Kd (pKd) result in [8], in [9], in assay [11], in assay [12], in [13] and in assay [14] was “below the threshold” each time. The pKd entry in [15] is “below the threshold”; in assay [16] it was “below the threshold”; in [17], “below the threshold”; in [18], 4.23; in assay [19], 4.34; in assay [20] it was “below the threshold”. Besides, the negative logarithm of the Kd (pKd) result in assay [21], in assay [22], in assay [23] and in assay [24] was “below the threshold” throughout.

On to RLPKIKETTV [FRMPD4, Q14CM0], for which the negative logarithm of the Kd (pKd) entry in assay [1] is “below the threshold”; in [2] it was 4.43; in [3] it was “below the threshold”; in assay [4], “below the threshold”; in assay [5] it was 4.47; in [6] it was “below the threshold”. Moreover, the pKd result in [7] was “below the threshold”; in assay [8], “below the threshold”; in assay [9], “below the threshold”; in assay [10] it was 4.44; in assay [11], “below the threshold”; in [12], “below the threshold”. Moreover, the negative logarithm of the Kd (pKd) result is “below the threshold” in assay [13]; “below the threshold” in [14]; “below the threshold” in assay [15]; “below the threshold” in assay [16]; “below the threshold” in assay [17]; 5.3 in assay [18]. The pKd in assay [19] is 4.7; in assay [20], “below the threshold”; in assay [21] it was “below the threshold”; in assay [22] it was 4.24; in [23], “below the threshold”; in [24], “below the threshold”.
